Source: the RNAGym collection of RNA variant scans (doi:10.1093/molbev/msab373)

B1: Azoarcus group I ribozyme (parent)
chain: GUGCCUUGCGCCGGGAAACCACGCAAGGGAUGGUGUCAAAUUCGGCGAAACCUAAGCGCCCGCCCGGGCGUAUGGCAACGCCGAGCCAAGCUUCGGCGCCUGCGCCGAUGAAGGUGUAGAGACUAGACGGCACCCACCUAAGGCAAACGCUAUGGUGAAGGCAUAGUCCAGGGAGUGGCGAAAGUCACACAAACCGG

Variants of: B1
Assay: reverse-splicing fitness (ratio to wild type); higher = more active; in vitro selection; Mg2+ level not given
How it was run: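 An in vitro group I ribozyme library with randomized positions was T7-transcribed and gel-purified. In triplicate, 10 pmol RNA in EPPS pH 7.5 was reacted with 50 pmoles of a 30-nt RNA substrate for 1 h at 37 °C across several added MgCl2 levels (1–48 mM), then stopped with EDTA. Products were reverse transcribed from a substrate-complementary primer, PCR-amplified and sequenced (HiSeq 4000). Fitness is a variant's read proportion after selection over that before, normalised to wild type.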

Variant | reverse-splicing fitness
A111C A120C A145G C150A C169U | 0.0324
A111C A120C A145G C150A C169G | 0.00782
C82U A145G C150A C169G U176G | 0.0053
C82U A145G C150A C169G U176C | 0.0265
C82U A145G C150A C169G U176A | 0.0162
A111C A120C A145G C150G C169A U176C | 0.0116
A111C A120C A145G C150G C169A U176G | 0.00793
A111C A120C A145G C150G C169A U176A | 0.0133
A111C A120C A145C C150G C169A U176C | 0.00793
A111C A120C A145C C150G C169A U176G | 0.00595
A111C A120C A145C C150G C169A U176A | 0.0076
A111C A120C A145C U176C | 0.197
A111C A120C A145C U176G | 0.0513
A111C A120C A145C U176A | 0.172
C82U C150G C169G | 0.00776
C82U C150G C169A | 0.00916
C82U C150G C169U | 0.00789
C82U A145G C169U | 0.0143
C82U A145G C169A | 0.00962
C82U A145G C169G | 0.0106
C82U C150U C169G U176C | 0.015
C82U C150U C169G U176A | 0.0135
C82U C150U C169G U176G | 0.0052
C82U C150A | 0.0698

Variant | reverse-splicing fitness
C82U C150U | 0.369
C82U C150G | 0.051
C82U A145G C150A U176A | 0.0793
C82U A145G C150A U176G | 0.0228
C82U A145G C150A U176C | 0.0964
C82U A145G C150G C169G | 0.00814
C82U A145G C150G C169U | 0.00979
C82U A145G C150G C169A | 0.00942
A111C A120C A145G C150A C169A U176G | 0.00677
A111C A120C A145G C150A C169A U176C | 0.0214
A111C A120C A145G C150A C169A U176A | 0.0145
C82U A145U C150G C169U U176A | 0.00782
C82U A145U C150G C169U U176C | 0.0114
C82U A145U C150G C169U U176G | 0.00514
C82U C169U U176A | 0.0123
C82U C169U U176C | 0.0155
C82U C169U U176G | 0.00445
C82U A145U C169U U176C | 0.0127
C82U A145U C169U U176A | 0.0111
C82U A145U C169U U176G | 0.00406
C82U C150A C169U U176G | 0.0058
C82U C150A C169U U176C | 0.0153
C82U C150A C169U U176A | 0.0169
C82U A145U C150A C169U U176G | 0.00535

Variant | reverse-splicing fitness
C82U A145U C150A C169U U176C | 0.0101
C82U A145U C150A C169U U176A | 0.0118
A111C A120C A145G C150G U176G | 0.0072
A111C A120C A145G C150G U176A | 0.0158
A111C A120C A145G C150G U176C | 0.0368
A111C A120C A145G C150U C169A | 0.0131
C82U C150U C169U U176G | 0.00558
C82U C150U C169U U176A | 0.0128
C82U C150U C169U U176C | 0.0135
C82U A145G C150G C169U U176A | 0.0125
C82U A145G C150G C169U U176G | 0.00689
C82U A145G C150G C169U U176C | 0.0132
A111C A120C A145C C150A C169U U176A | 0.0155
A111C A120C A145C C150A C169U U176G | 0.00564
A111C A120C A145C C150A C169U U176C | 0.0108
C82U A145C C150G C169G U176C | 0.00649
C82U A145C C150G C169G U176G | 0.00454
C82U A145C C169U U176A | 0.0118
C82U A145C C169U U176G | 0.00457
C82U A145C C169U U176C | 0.00956
A111C A120C A145C C150U C169U U176G | 0.00555
A111C A120C A145C C150U C169U U176A | 0.0206
A111C A120C A145C C150U C169U U176C | 0.0237
C82U A145U C150G | 0.0715

Variant | reverse-splicing fitness
C82U A145U C150U | 0.438
C82U A145U C150A | 0.0658
C82U A145U C150A C169G | 0.00614
C82U A145U C150A C169U | 0.00825
C82U A145U C150A C169A | 0.00771
C82U A145U C150U C169A | 0.00939
C82U A145U C150U C169G | 0.00951
C82U A145U C150U C169U | 0.0118
C82U C150U C169U | 0.0129
C82U C150U C169G | 0.00973
C82U C150U C169A | 0.00983
A111C A120C A145C C150G C169U U176A | 0.00995
A111C A120C A145C C150G C169U U176C | 0.0163
A111C A120C A145C C150G C169U U176G | 0.0054
A111C A120C A145C C150U C169G | 0.00649
A111C A120C A145C C150U C169A | 0.00837
A111C A120C A145C C150U C169U | 0.048
C82U A145C C150U U176A | 0.114
C82U A145C C150U U176C | 0.127
C82U A145C C150U U176G | 0.0408
A111C A120C A145C C150U C169G U176C | 0.0118
A111C A120C A145C C150U C169G U176G | 0.00592
A111C A120C A145C C150U C169G U176A | 0.0202
C82U A145U C169A U176A | 0.00693

Variant | reverse-splicing fitness
C82U A145U C169A U176C | 0.00648
C82U A145U C169A U176G | 0.00464
C82U C150G C169A U176G | 0.00612
C82U C150G C169A U176C | 0.01
C82U C150G C169A U176A | 0.0115
A111C A120C A145G C150G C169G U176C | 0.0119
A111C A120C A145G C150G C169G U176G | 0.00553
A111C A120C A145G C150G C169G U176A | 0.0102
A111C A120C A145C C150U U176C | 0.0914
A111C A120C A145C C150U U176G | 0.0168
A111C A120C A145C C150U U176A | 0.069
C82U A145C C169G U176C | 0.00995
C82U A145C C169G U176A | 0.0179
C82U A145C C169G U176G | 0.00428
C82U C169G U176G | 0.00406
C82U C169G U176C | 0.0184
C82U C169G U176A | 0.0144
C82U A145C C150U C169A U176C | 0.00467
C82U A145C C150U C169A U176G | 0.00518
C82U A145C C150U C169A U176A | 0.00827
A111C A120C A145C C150G U176C | 0.0391
A111C A120C A145C C150G U176G | 0.00444
A111C A120C A145C C150G U176A | 0.0198
C82U A145U C150G U176G | 0.0104

Variant | reverse-splicing fitness
C82U A145U C150G U176A | 0.0424
C82U A145U C150G U176C | 0.0567
C82U A145U C150U U176C | 0.346
C82U A145U C150U U176G | 0.0898
C82U A145U C150U U176A | 0.274
C82U C150U U176C | 0.294
C82U C150U U176G | 0.0675
C82U C150U U176A | 0.238
C82U A145G C150U C169G U176A | 0.0129
C82U A145G C150U C169G U176C | 0.0172
C82U A145G C150U C169G U176G | 0.00503
C82U A145G C169A U176G | 0.00411
C82U A145G C169A U176A | 0.0178
C82U A145G C169A U176C | 0.0258
C82U C169G | 0.00984
C82U C169A | 0.00905
C82U C169U | 0.0149
A111C A120C A145C C169U U176G | 0.006
A111C A120C A145C C169U U176A | 0.0332
A111C A120C A145C C169U U176C | 0.0413
A111C A120C A145C C150A C169A U176G | 0.00655
A111C A120C A145C C150A C169A U176A | 0.0152
A111C A120C A145C C150A C169A U176C | 0.00638
C82U A145G C169G U176G | 0.00452

Variant | reverse-splicing fitness
C82U A145G C169G U176A | 0.0184
C82U A145G C169G U176C | 0.0258
C82U A145G C150A C169A | 0.0109
C82U A145G C150A C169G | 0.00784
C82U A145G C150A C169U | 0.0093
C82U A145U C150U C169A U176C | 0.00789
C82U A145U C150U C169A U176G | 0.0048
C82U A145U C150U C169A U176A | 0.0115
A111C A120C A145C C150A U176A | 0.0203
A111C A120C A145C C150A U176G | 0.0084
A111C A120C A145C C150A U176C | 0.0293
A111C A120C A145C C150G C169G U176A | 0.00861
A111C A120C A145C C150G C169G U176G | 0.00522
A111C A120C A145C C150G C169G U176C | 0.00939
C82U A145U C150U C169G U176A | 0.00933
C82U A145U C150U C169G U176C | 0.0107
C82U A145U C150U C169G U176G | 0.00498
C82U A145G C150G C169G U176G | 0.00548
C82U A145G C150G C169G U176C | 0.0124
C82U A145G C150G C169G U176A | 0.01
A111C A120C A145C C150U C169A U176G | 0.00703
A111C A120C A145C C150U C169A U176C | 0.005
A111C A120C A145C C150U C169A U176A | 0.0107
